Target: T1, 3′hExofl (human, UniProt Q8IV48 1-349)
T1 chain: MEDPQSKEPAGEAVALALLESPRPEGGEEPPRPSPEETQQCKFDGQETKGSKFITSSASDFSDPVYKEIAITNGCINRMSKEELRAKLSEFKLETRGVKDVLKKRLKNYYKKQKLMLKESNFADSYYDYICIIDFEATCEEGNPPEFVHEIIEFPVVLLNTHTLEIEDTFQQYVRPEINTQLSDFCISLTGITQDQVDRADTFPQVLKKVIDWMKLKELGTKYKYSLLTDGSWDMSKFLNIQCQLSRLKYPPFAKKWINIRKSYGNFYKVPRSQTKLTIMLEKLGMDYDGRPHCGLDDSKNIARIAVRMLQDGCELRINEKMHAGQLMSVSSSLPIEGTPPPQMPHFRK
Test: NMR

B1: UPF2-AL (domain or fragment)
chain: NDKDSKDSMTEGENLEEDEEEEEGGAETEEQSGNESEVNEPEEEEGSDNDDDEGEEEEEENTDYLTDSNKENETDEENTEVMIKGGGLKH
Kd: 200 µM

Source: article PMC12775136 (2025)
